Where “and” joins values, the source holds several entries; their conditions need not be identical. Equal entries are not always repeated.

Common to all, as to assay: plate binding assay (luminescent)
The subject of data set [1] is poly-ornithine. The following applies: miRNA species not given; 3'-biotinylated cytidine (bis)phosphate ligated; ELISA plate-immobilized protein, BSA block; PBS with or without 0.5 mM MgCl2, or HBSS with 1.26 mM Ca2+ and 0.9 mM Mg2+; neutral pH; 2 h at 37 C or overnight.
The test system of data set [2] is AGO2 full-length (human). The following applies: Ca2+ and Mg2+; 3'-biotinylated cytidine (bis)phosphate ligated; ELISA plate-immobilized protein, BSA block; PBS with or without 0.5 mM MgCl2, or HBSS with 1.26 mM Ca2+ and 0.9 mM Mg2+; neutral pH; 2 h at 37 C or overnight ….
For data set [3], the target named is sNRP1 (human) (UniProt O14786). The following applies: 3'-biotinylated cytidine (bis)phosphate ligated, ELISA plate-immobilized protein, BSA block, PBS with or without 0.5 mM MgCl2, or HBSS with 1.26 mM Ca2+ and 0.9 mM Mg2+, neutral pH, 2 h at 37 C or overnight ….
The test system of data set [4] is NRP1-Fc (rat). As to conditions: 3'-biotinylated cytidine (bis)phosphate ligated; ELISA plate-immobilized protein, BSA block; PBS with or without 0.5 mM MgCl2, or HBSS with 1.26 mM Ca2+ and 0.9 mM Mg2+; neutral pH; 2 h at 37 C or overnight ….

Chain of sNRP1 (human) (O14786 22-640): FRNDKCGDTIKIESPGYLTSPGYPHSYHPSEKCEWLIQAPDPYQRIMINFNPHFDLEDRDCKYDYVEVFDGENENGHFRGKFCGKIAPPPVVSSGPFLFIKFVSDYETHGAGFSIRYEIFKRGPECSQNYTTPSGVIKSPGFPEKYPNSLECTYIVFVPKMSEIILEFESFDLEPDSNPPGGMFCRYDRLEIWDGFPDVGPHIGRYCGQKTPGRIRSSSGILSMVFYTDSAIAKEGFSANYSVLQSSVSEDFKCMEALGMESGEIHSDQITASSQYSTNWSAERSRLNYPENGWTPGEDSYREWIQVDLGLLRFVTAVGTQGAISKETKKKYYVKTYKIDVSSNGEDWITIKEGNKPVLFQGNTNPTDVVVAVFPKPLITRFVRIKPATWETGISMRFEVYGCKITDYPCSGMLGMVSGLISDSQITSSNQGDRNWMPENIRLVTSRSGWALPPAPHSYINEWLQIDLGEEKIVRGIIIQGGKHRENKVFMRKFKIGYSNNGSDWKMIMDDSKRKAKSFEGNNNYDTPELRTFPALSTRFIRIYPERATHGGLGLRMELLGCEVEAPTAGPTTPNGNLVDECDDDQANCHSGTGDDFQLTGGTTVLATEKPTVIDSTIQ

Broadly, the Kd is the constant that tells how readily two partners part at equilibrium. A lower Kd goes with a tighter complex. On to miR-20a, for which the Kd in data set [1] is 6670 pM; in data set [2] it was 7270 pM.

Consider miR-138, for which the Kd came to 772 pM in data set [3] (0.9 mM Mg2+, 1.2 mM Ca2+ (1.26 in Methods)) and 348 pM in data set [3].

As for miR-331, in data set [4], the Kd worked out at 911 pM.

Consider miR-422, for which the Kd in data set [3] was 344 pM and 138 pM.

The values above are taken from PMC5356539.
